Reference: patent US20100048868A1

Biological target: recombinant human HER2 extracellular domain (human) (UniProt P04626)
Test: SPR (Biacore 2000), HER2-ECD immobilised, 1:1 model, 25 C

His6-(ZHER2 A)2 (designed binder) gave a Kd of 3 nM and a koff of 0.00076 s⁻¹.
